What was measured:
[1] = system: LacI-Halo WT (Escherichia coli); assay: PBM real-time kinetics (kd/ka); conditions: PBM: imaging buffer (Na+ + K+ about 30 mM; composition and pH not in the material), EMSA: 1 nM DNA, 0-500 nM LacI (monomer), 1x imaging buffer with 20, 100 or …
[2] = system: Q55N-LacI-Halo Q55N (Escherichia coli); assay: PBM real-time kinetics (kd/ka); conditions: PBM: imaging buffer (Na+ + K+ about 30 mM; composition and pH not in the material), EMSA: 1 nM DNA, 0-500 nM LacI (monomer), 1x imaging buffer with 20, 100 or …
[3] = system: V52A-LacI-Halo V52A (Escherichia coli); assay: PBM real-time kinetics (kd/ka); conditions: PBM: imaging buffer (Na+ + K+ about 30 mM; composition and pH not in the material), EMSA: 1 nM DNA, 0-500 nM LacI (monomer), 1x imaging buffer with 20, 100 or …
[4] = system: LacI-Halo WT (Escherichia coli); assay: EMSA; conditions: NaCl titration; Methods list 20, 100, 200 mM; Kd values only in figure; PBM: imaging buffer (Na+ + K+ about 30 mM; composition and pH not in the material); EMSA: 1 nM DNA, 0-500 nM LacI (monomer), 1x imaging buffer with 20, 100 or …
[5] = system: Q55N-LacI-Halo Q55N (Escherichia coli); assay: EMSA; conditions: NaCl titration; Methods list 20, 100, 200 mM; Kd values only in figure; PBM: imaging buffer (Na+ + K+ about 30 mM; composition and pH not in the material); EMSA: 1 nM DNA, 0-500 nM LacI (monomer), 1x imaging buffer with 20, 100 or …

O1 operator (PBM)
binding signal (KD/WT-KD(Osym)) ([1]; relative ka 0.66, kd 8.84 ± 0.12 e-4 s-1): 6.1
binding signal (KD/WT-KD(Osym)) ([2]; relative ka 0.35, kd 22.79 ± 0.89 e-4 s-1): 28.4
binding signal (KD/WT-KD(Osym)) ([3]; relative ka 0.72, kd 3.80 ± 0.06 e-4 s-1): 2.6

O2 operator (PBM)
binding signal (KD/WT-KD(Osym)) ([1]; relative ka 0.42, kd 13.25 ± 0.35 e-4 s-1): 14.1
binding signal (KD/WT-KD(Osym)) ([2]; relative ka 0.12, kd 36.53 ± 3.80 e-4 s-1): 140
binding signal (KD/WT-KD(Osym)) ([3]; relative ka 0.58, kd 4.84 ± 0.10 e-4 s-1): 4.1

Osym 60 bp EMSA probe
binding signal (fold KD increase, 50 to 200 mM NaCl) [4]: 10
binding signal (fold KD increase, 50 to 200 mM NaCl) [5]: 2

Osym operator (PBM)
binding signal (KD/WT-KD(Osym)) ([1]; reference, kd 2.14 ± 0.03 e-4 s-1): 1
binding signal (KD/WT-KD(Osym)) ([2]; relative ka 0.89, kd 7.39 ± 0.13 e-4 s-1): 3.6
binding signal (KD/WT-KD(Osym)) ([3]; relative ka 1.03, kd 0.89 ± 0.02 e-4 s-1): 0.4
